Reference: the supplement of paper PMC9170038

Tested on: K4 kissing-loop RNA reporter
Test: apparent KD of K4 kissing-loop reporter; higher = weaker reporter binding
Conditions: Eterna round: R107
Protocol: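 RNA-MaP round R107: designed RNA switches with theophylline, tryptophan, arginine or FMN aptamers are transcribed on-chip within common flanks. They are titrated with a labelled K4 kissing-loop RNA reporter in RNA-MaP buffer (100 mM Tris pH 7.5, 80 mM KCl, 4 mM MgCl2), without ligand or with the indicated ligand. Median apparent KD per design.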

[1] = input ligand: theophylline 20 uM
[2] = input ligand: tryptophan 2.4 mM
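Note: bound reporter read as fluorescence of individual clusters on recovered sequencing chips by microscopy, with normalized cluster intensities fitted with a binding model.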

Sequence	apparent KD of K4 kissing-loop reporter (input ligand: FMN 200 uM)	apparent KD of K4 kissing-loop reporter (input ligand: arginine 13.2 mM)	apparent KD of K4 kissing-loop reporter (input ligand: none)	apparent KD of K4 kissing-loop reporter [1]	apparent KD of K4 kissing-loop reporter [2]
UCCUAGGACUUCAGGCGAAAGCCCUGCGAAGGAGCGUGCGAAAGCACAGGUAGGUCGCGCAGUGAUGUUGCACCUAGGUAAUAAA [#SwitchBubble 20 #K4Late]	481 nM	656 nM	489 nM	1020 nM	124 nM
AGAUAGGGCUGAAGGAGCGUCGGAGAAGAGAAGAAGAAAUCCAGUGAUGUUGGAUAAAUCCGACAGGUAGGUCGCAGUUUUAUGA [hbob_SS_Arginine_B_2t137]	122 nM	135 nM	115 nM	179 nM	119 nM
AUGCAGUGAUGUUGCUUUGUAUAAACAGAUACCAGUGAAUUUUAACACCCUUGGCAGCUGAUAGAUUCUUAAUUCUAUUAUAUAA [JR_SSTheophyA_Sub020]	164 nM	189 nM	165 nM	197 nM	140 nM
UGAUAGGACAGAAGGAGCGGAAUGCUAGUCAAAGACUAGCAACGUUAAACAGGAGUGAUGUUCCAGGUAGGUCGCUGUCCUAUCU [ArgBX 22 #SwitchBubble #StaticStem]	143 nM	124 nM	135 nM	140 nM	113 nM
GGAGUCCCGUUAGAUUGUGUAGAUACAAGACGAGGACCGGUACGGCCGCCACUCGCCAUCGUCCAGUGAUGUUGGGCGUCACGGG [theeternabot_sameState_KL_Trp_A_30]	262 nM	179 nM	235 nM	227 nM	219 nM
GGAUAGGACAGAGGAUAUGGACAGUCUACAAAGUAGGCUGAAAAUCCUUGAAUGGAAGUGAUGUUUCUAGAAGGCUGUCCUAUCG [FmnBX 19 - #SwitchBubble #StaticStem #Palindromic]	800 nM	160 nM	190 nM	174 nM	180 nM
AGGAUCCACCAGUGAUGUUGGAAAUACAUCAAGGAUAUGACGAAAGUCAGAAGGUGGUAGACUGGACAAAGUCCAGUUGGAUCCA [KL-SSFMN-A18]	135 nM	54.9 nM	62.7 nM	112 nM	66.4 nM
UGUAUGGACUGAAGGAGCGCUAGGAGUGUGAGUGAUGUUCAUACAAAUGUAUAGAUGGUCUGGCAGGUAGGUCGCAGUCCAUACU [KL-SSArg B4]	258 nM	145 nM	203 nM	156 nM	184 nM
GAUAUAUAGACGGCCGCCACUUAUAAAUUUCAGUGAUGUUGAAAUGUUAAAUAACGAACACAAUAGAGGACCGGGUCAAAUAUCG [Same State Tryptophan B GF 2]	162 nM	161 nM	190 nM	187 nM	171 nM
AGUGUUGUUUUUUUUAAGAGUGAUGUUUUUCGAGGACCGGUACGGCCGCCACUCGAGUGAUGAGUGAGGUGUGGUGAUGAUUAGU [#10 K4 Tryptophan A Exclusion]	816 nM	790 nM	1050 nM	664 nM	337 nM
UAUUCUAAUGCGGCCGCCACUGGAAGUGAUGUUUCCUCUGGCUAUCAUUUCGGACGGUAUUGUCCCAGGACCGGGCAUCCCUCUC [theeternabot_exclusion_KL_Trp_B_4]	109 nM	101 nM	106 nM	104 nM	103 nM
AUCGUUGUCUGAGGAUAUCGGUUAUCUGUAGUGAUGUUACAGUAUAUUGAUAUUAAAGAUUCUAUUCGAGAAGGCAGACAACGUA [JR_Nu3_ExcFMNB_Sub023]	75.5 nM	62.7 nM	67.2 nM	57.9 nM	61.9 nM
UGACUGGAUGGAAGGAGCGCUAAACUCCUAGUGAUGUUAGGGAAACGAGACAAAGUCUCGAGGCAGGUAGGUCGCCAUCUAGUCU [FiskerMod 15 - Jieux - Same State - Arginine B]	183 nM	139 nM	168 nM	165 nM	155 nM
GAGAUAGAGGCGGCCGCCACUAGUGAUGUUAGUGAUGUUAGAUAGAGAAUAGAACAGAGAUAGGAUAGGACCGGGCCAGAUAGAG [Tryptophan B Exclusion; Euphoria Solution]	69.4 nM	60.8 nM	57.4 nM	52.1 nM	68.6 nM
GGGAUGAUGUCGGCCGCCACUGACUGUGUCCAGUGAUGUUGGGAGUGUACGGAAGUUCCAUAUAUCAGGACCGGGACCUCGCUCC [theeternabot_sameState_KL_Trp_B_44]	866 nM	487 nM	938 nM	817 nM	616 nM
CGAAGACUUAUGGAUACCAGCCUAGCAUCAGGUGGUUCAGAGGCAUGCAGUGAUGUUGCAGGCCCUUGGCAGCCAUGGUACUAGA [Xelebi]	76 nM	71.3 nM	70 nM	79.8 nM	79.7 nM
UGUGGAGGAUAUGAUACCAGCAGUGAGAGAGAGGAAGUAUAGUGAUGUUAUAUGAGAGAAUGCCCUUGGCAGCGUGUGUAGUGGG [SSTheophylB.K]	184 nM	137 nM	146 nM	176 nM	145 nM
UCUGUGUCCGCGGCCGCCACUCGGGACUAAGUGAUGUUUAGUCCUUCAGAAUAAAGAAGUGAUGAGAGGACCGGGCGAUCGCACC [theeternabot_sameState_KL_Trp_B_2]	100 nM	81.9 nM	99.6 nM	72.3 nM	102 nM
GCAGACCGCAGUGAUGUUGCGAAAUCGGAAGGAGCGCGUGAAAACGCAGGUAGGUCGCCGACACAGGGAUUAUAACCCUGUUUGC [Arginine A K4 16]	173 nM	196 nM	207 nM	176 nM	154 nM
CAAGUCGAAAAGUGAUGUUUUUCAUACGAUACCAGCAACCAGACAUGCCCUUGGCAGCGUCCAUUACGUUUCUGAGCCCGUACAG [theeternabot_exclusion_KL_Theo_A_40]	360 nM	336 nM	389 nM	388 nM	308 nM
UCGGGCGGCUGAAGGAGCGGGCGGGCCCGAGUGAUGUUCGGGUGGGCUGUGAGGCCCGGAGCCCAGGUAGGUCGCGGUUCCGCCC [#2 Same State - Arginine B Attempt #28 (HarryS)]	262 nM	181 nM	157 nM	168 nM	158 nM

Sequence	apparent KD of K4 kissing-loop reporter (input ligand: FMN 200 uM)	apparent KD of K4 kissing-loop reporter (input ligand: arginine 13.2 mM)	apparent KD of K4 kissing-loop reporter (input ligand: none)	apparent KD of K4 kissing-loop reporter [1]	apparent KD of K4 kissing-loop reporter [2]
AGAACUGUCUGGGAUACCAGCCGAGGAGUGAUGUUCCGGCUCGACGAAACGUCGAGCUACGGCCCUUGGCAGCUCAGACAGUUCA [#22 K4 Theophylline B Same State]	1990 nM	639 nM	1170 nM	735 nM	340 nM
AGGCACGAGCAAGGAUAUCGAGUAGAGUGAUGUUCUGCCUGGGUUGGCUCGCAAGGGCCUUCCCAGCGAGAAGGUGCUCGUGCCU [#2 Same State - FMN A Attempt #17 (HarryS)]	277 nM	743 nM	772 nM	745 nM	830 nM
UGUACCGAGUCAGGAUAUGUCGUCGAAAGACGAAAUGGAGUGAUGUUCCUUAAACUGCGAAAGCAGACAGAAGGGACUUGGUACU [FmnBS 29 #SwitchBubble #StaticStem #DoubleMagnetSystem]	160 nM	278 nM	385 nM	331 nM	274 nM
AGAACUGUCUGAGAUACCAGCUAAGGAGUGAUGUUCCUAGGUCCACGAAAGUGGACCCAUAGCCCUUGGCAGCUCAGACAGUUCA [#23 K4 Theophylline B Same State]	1280 nM	833 nM	1370 nM	674 nM	1160 nM
AAUAAGGUCGCCGAUACCAGCGCGGGCAGAGCAAAGCUCUGCCCGGUAGUGAUGUUACCGCGCCCUUGGCAGCGGUGGCACGACC [Omei KL Theo B SS C v6]	152 nM	58.3 nM	126 nM	159 nM	63.3 nM
GCGUAGGAAGAAGGAUAUCACAGGAUGCCACGUUAGUGAUGUUAAUUUGGUUCAGCGCGAUUCUGAUGAGAAGGUCUUUUAUGAU [theeternabot_sameState_KL_FMN_B_47]	220 nM	300 nM	295 nM	205 nM	210 nM
GAAAGAAAGUAUGAUACCAGACACCCGAGUGAUGUUCGGAGCAGUGUGUUGUUCUUUUAAGUCCCUUGGCAGCAUAAAAGAAAAG [whbob_SS_Theo_B_sa85]	116 nM	107 nM	127 nM	114 nM	87.1 nM
GGAUAGGAUAGAGGAUAUGGUUUAGGCAAGAAUAACUUGUCAUGUAAAUCCAUGAGGAGUGAUGUUCCAGAAGGCUGUCCUAUCG [MatMod 8 - Jieux - Exclusion - FMN B]	576 nM	123 nM	121 nM	142 nM	91.8 nM
ACGAAAUGCGACUCCUAGUUACACCGGGAAGGAGCGCGGAUAACCGCAGGUAGGUCGCCCGGAAGCCGGACCAGUGAUGUUGGUC [Exclusion Arginine A Gf 27]	240 nM	273 nM	182 nM	165 nM	217 nM
UGAUUGAACUGAAGGAGCGGCAAGAGAGAAGGAAAUAUAGUGAUGUUAUAUAAGAGAGAGAGCCAGGUAGGUCGCAGAGGGAGGA [ExArgB.D]	198 nM	113 nM	159 nM	134 nM	151 nM
GGGAUAGGAUCAGUGAUGUUGGUCCCAGAUACCAGACAAAGUCACGUCCCUUGGCAGCUGAUGAUCGCUGACGACCGGCCUCCAA [theeternabot_sameState_KL_Theo_A_7]	259 nM	218 nM	262 nM	219 nM	256 nM
CUUAAGGAGUGUCGUGCCGGACACUGGGAAGGAGCGCAAUUCUUUGCAGGUAGGUCGCCCAGUGAUGUUGGGUCUCGCUGUCGAA [KL-XArg-A20]	139 nM	253 nM	204 nM	376 nM	285 nM
GGAUGGUAGGCGGCCGCCACUAAAACAGAACACAUACAAGCCAGUGAUGUUGGUAUGAUGGUGUAUAGGACCGGGCCUAGAUAGA [Exclusion - Tryptophan B (Freestyle 5)]	197 nM	178 nM	199 nM	186 nM	196 nM
AAUAAUAAUAAAUAUAGAUUGAUGAGCAAACGAGGACCGGUACGGCCGCCACUCGAGUGAUGUUCGAGAAGCUCAUCAAUCAUAA [AK4.6 Exc Tryptophan A]	180 nM	131 nM	141 nM	141 nM	372 nM
GCAAAGUGUCAUAUUAUCUAGCAGCUGCGAAAGGAUAUGAGAGUGCUCAGAAGGUUCUUGGCGGAGUGAUGUUCCGCGUAAAUGG [theeternabot_exclusion_KL_FMN_A_22]	84.2 nM	93.8 nM	93.9 nM	103 nM	81.4 nM
UAUAAUUCGGCGGCCGCCACUGACCAUAGCCUUCGAUGGCCAGUGAUGUUGGCCUCUGGCUCUAACAGGACCGGGCCGAAUUGUG [Reresoza]	211 nM	164 nM	180 nM	138 nM	120 nM
CACCAUGAAUUCUCUAGGAGUGAUGUUUUUCGAGGACCGGUACGGCCGCCACUCGGACGAGGACCGUGGGAGCGGCGAAGCGGCU [?oegmullin]	99.2 nM	59.1 nM	767 nM	169 nM	104 nM
GGAUAGGACAGAGGAUAUCCUUGAGGCAAGAAACUUGUCUCUAAAGGAUGAAUCCUAGUGAUGUUAGGAGAAGGCUGUCCUAUCG [FmnBX 14 - #SwitchBubble #StaticStem #Palindromic]	103 nM	82.2 nM	85 nM	77.2 nM	87.1 nM
GCCCUCUUAACGGCCGCCACUAUAUUUAUGAUCUCUAGUAAGUGAUGUUUACUCCGGCUUAUAGGUAGGACCGGGUUAUUAUCUU [theeternabot_sameState_KL_Trp_B_39]	229 nM	336 nM	257 nM	302 nM	181 nM
GAGAGCCCUGUAGGAUAUGAGUCUAGUGAUGUUAGGCGGUCCAUGCGCGUGGCGCGUUAUGCCCUUUUAGAAGGACAGGGCUCUC [#2 Exclusion - FMN B Attempt #20 (HarryS)]	105 nM	67.2 nM	80.9 nM	80.1 nM	80 nM
